Holding throughout (type): binding
Assay [1] relates to rat SEZ6. The assay can be described thus: Flow cytometry cross reactivity, RIN-m5F cells. Particulars: 5 μg/mL antibody. The procedure:
(§1) In this regard flow cytometry was performed using a FACSCanto II as per the manufacturer's instructions in order to confirm that selected SC17 antibody modulators can immunospecifically associate with human SEZ6 and to determine whether the same modulators cross-react with cynomolgus, rat and/or murine SEZ6 in addition to SEZ6L and SEZ6L2. More particularly modulators were tested for cross reactivity to murine SEZ6 and rat SEZ6 by flow cytometry against Neuro2a (ATCC Cat # CCL131), and RIN-m5F (ATCC cat # CRL-11605) cell lines which express mouse SEZ6 and rat SEZ6, respectively. For examining cross reactivity to cynomolgus SEZ6, yeast displaying the extracellular domain of cynomolgus SEZ6 (Boder et al, 1997) were used for flow cytometry analysis.
(§2) Briefly 1×10^5 cells per well of Neuro2a, RIN-5mF, or yeast displaying cynomolgus SEZ6 cells were incubated for 30 minutes with 50 μL PBS (2% FCS) buffer with 5 μg/mL antibody. Cells were washed twice with the same buffer and then incubated with 50 μL per sample DyLight 649 labeled goat-anti-mouse IgG, Fc fragment specific secondary diluted 1:200 in PBS buffer. After incubating for 15 minutes cells were washed twice with the PBS buffer and re-suspended in the same with DAPI for flow cytometry analysis of Neuro2a and Rin-m5F or buffer without DAPI for flow cytometric analysis of yeast cells with cSEZ6.
Background: In flow cytometry, cells or beads pass a laser one at a time.

Assay [2] relates to cynomolgus SEZ6. The assay can be described thus: Flow cytometry cross reactivity, yeast displaying extracellular domain of cynomolgus SEZ6. Particulars: 5 μg/mL antibody. The procedure:
as §1, §2

The target of assay [3] is T1, SEZ6 ECD (Homo sapiens, UniProt Q53EL9).
T1 construct: SEZ6 extracellular domain (amino acids 1-904); expressed in transfected cells; host or cells: yeast (surface display, Cochran et al. protocol)
T1 sequence (Q53EL9 20-923): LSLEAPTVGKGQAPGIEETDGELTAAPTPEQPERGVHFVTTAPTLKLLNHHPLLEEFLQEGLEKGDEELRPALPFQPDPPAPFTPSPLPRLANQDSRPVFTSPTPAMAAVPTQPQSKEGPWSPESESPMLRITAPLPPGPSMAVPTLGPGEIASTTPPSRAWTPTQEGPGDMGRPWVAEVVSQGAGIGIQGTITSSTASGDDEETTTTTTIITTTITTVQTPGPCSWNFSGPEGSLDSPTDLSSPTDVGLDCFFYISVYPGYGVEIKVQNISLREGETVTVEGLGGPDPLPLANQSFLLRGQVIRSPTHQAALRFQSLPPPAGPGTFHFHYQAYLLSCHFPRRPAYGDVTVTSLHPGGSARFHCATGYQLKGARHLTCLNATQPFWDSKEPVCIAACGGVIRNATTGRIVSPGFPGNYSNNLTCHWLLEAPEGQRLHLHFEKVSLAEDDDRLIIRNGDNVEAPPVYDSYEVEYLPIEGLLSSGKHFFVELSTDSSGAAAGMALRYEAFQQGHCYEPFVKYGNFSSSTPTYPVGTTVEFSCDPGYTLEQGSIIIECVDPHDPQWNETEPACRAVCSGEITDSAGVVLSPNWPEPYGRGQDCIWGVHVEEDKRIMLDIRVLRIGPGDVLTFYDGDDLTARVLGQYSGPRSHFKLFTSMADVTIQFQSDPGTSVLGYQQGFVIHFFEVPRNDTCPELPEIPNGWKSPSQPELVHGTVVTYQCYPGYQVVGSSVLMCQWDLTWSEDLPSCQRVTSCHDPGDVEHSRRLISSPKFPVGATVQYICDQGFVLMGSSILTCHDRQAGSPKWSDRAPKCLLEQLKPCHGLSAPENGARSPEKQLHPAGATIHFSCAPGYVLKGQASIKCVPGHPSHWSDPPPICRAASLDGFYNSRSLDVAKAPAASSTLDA
Briefly: Fine epitope mapping (phage display peptide library or yeast-displayed SEZ6 ECD mutants). The note with it: epitope conformational (discontinuous) or linear. The procedure:
Epitopes were classified either as conformational (i.e. discontinuous) or linear. Yeast displaying the SEZ6 ECD construct was heat treated for 30 minutes at 80° C. in order to denature the antigen, washed twice in ice-cold PBSA and then subjected to the same staining protocol and flow cytometry analysis as described above. Antibodies that bound to both the denatured and native yeast were classified as binding to a linear epitope, whereas antibodies that bound native yeast but not denatured yeast were classified as conformationally specific.
Fine epitope mapping was further performed on selected antibodies to determine the specific amino acids to which they bound. Antibodies that bound to a linear epitope were mapped using the Ph.D.-12 phage display peptide library kit (New England Biolabs E8110S). The antibody selected for epitope mapping was coated onto a Nunc MaxiSorp tube (Nunc) at 50 μg/mL in 3 mL 0.1 M sodium bicarbonate solution, pH 8 and incubated overnight. The tube was blocked with 3% BSA solution in bicarbonate solution. Then, 10^11 input phage in PBS+0.1% Tween-20 was allowed to bind, followed by ten consecutive washes with 0.1% Tween-20 to wash away non-binding phage. Remaining phage were eluted with 1 mL 0.2 M glycine for 10 minutes at room temperature with gentle agitation, followed by neutralization with 150 μL 1 M Tris-HCl pH 9. Eluted phage were amplified and panned again with 10^11 input phage, using 0.5% Tween-20 during the wash steps to increase selection stringency. DNA from 24 plaques of the eluted phage from the second round was isolated using the Qiaprep M13 Spin kit (Qiagen) and sequenced. Binding of clonal phage was confirmed using an ELISA assay, where the mapped antibody or a control antibody was coated onto an ELISA plate, blocked, and exposed to each clone phage. Phage binding was detected using horseradish peroxidase conjugated anti-M13 antibody (GE Healthcare), and the 1-Step Turbo TMB ELISA solution (Pierce). Phage peptide sequences from specifically binding phage were aligned using Vector NTI (Life Technologies) against the antigen ECD peptide sequence to determine the epitope of binding.
Selected antibodies that bound to a discontinuous epitope were mapped using the technique described by Chao et al. (2007). Libraries of SEZ6 ECD mutants were generated with error prone PCR using nucleotide analogues 8-oxo-2′deoxyguanosine-5′-triphosphate and 2′-deoxy-p-nucleoside-5′triphosphate (both from TriLink Bio) for a target mutagenesis rate of one amino acid mutation per clone. These were transformed into a yeast display format. Using the technique described above for domain-level mapping, the library was stained for c-myc and antibody binding at 50 nM. […] These clones were re-grown, and subjected to another round of FACS sorting for loss of binding to the target antibody. Using the Zymoprep Yeast Plasmid Miniprep kit (Zymo Research), individual ECD clones were isolated and sequenced. Where necessary, mutations were reformatted as single-mutant ECD clones using the Quikchange site directed mutagenesis kit (Agilent).
Individual ECD clones were next screened to determine whether loss of binding was due to a mutation in the epitope, or a mutation that caused misfolding. Mutations that involved cysteine, proline, and stop codons were automatically discarded due to the high likelihood of a misfolding mutation. Remaining ECD clones were then screened for binding to a non-competing, conformationally specific antibody. ECD clones that lost binding to non-competing, conformationally specific antibodies were concluded to contain misfolding mutations, whereas ECD clones that retained equivalent binding as wild type SEZ6 ECD were concluded to be properly folded. Mutations in the ECD clones in the latter group were concluded to be in the epitope. […]

Sequence of rat SEZ6 (as listed by the source): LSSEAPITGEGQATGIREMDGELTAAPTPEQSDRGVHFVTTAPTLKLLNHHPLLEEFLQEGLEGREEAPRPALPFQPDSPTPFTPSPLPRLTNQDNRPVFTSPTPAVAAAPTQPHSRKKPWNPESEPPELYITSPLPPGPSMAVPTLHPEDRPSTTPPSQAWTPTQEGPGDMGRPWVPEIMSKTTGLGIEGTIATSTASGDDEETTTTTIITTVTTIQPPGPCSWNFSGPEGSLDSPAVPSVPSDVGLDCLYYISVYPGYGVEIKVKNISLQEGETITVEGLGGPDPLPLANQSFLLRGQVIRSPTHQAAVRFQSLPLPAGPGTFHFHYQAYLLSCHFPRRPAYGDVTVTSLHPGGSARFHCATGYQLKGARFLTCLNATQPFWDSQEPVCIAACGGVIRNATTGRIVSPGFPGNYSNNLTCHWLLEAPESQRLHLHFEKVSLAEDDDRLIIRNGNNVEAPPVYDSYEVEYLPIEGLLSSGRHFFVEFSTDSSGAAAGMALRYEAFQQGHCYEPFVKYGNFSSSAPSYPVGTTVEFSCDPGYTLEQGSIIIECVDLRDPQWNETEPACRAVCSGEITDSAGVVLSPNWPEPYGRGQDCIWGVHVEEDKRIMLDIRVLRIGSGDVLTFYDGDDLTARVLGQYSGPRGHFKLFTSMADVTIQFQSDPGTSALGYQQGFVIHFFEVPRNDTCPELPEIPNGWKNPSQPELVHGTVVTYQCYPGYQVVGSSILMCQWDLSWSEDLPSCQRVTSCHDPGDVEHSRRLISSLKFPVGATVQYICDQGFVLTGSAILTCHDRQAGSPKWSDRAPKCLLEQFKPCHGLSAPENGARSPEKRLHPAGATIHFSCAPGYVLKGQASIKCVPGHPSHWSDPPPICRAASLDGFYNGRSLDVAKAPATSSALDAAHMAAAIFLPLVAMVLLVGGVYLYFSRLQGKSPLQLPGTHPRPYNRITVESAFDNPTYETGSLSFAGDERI

B1: SC17.17: murine anti-SEZ6 antibody (antibody, V domains shown)
VH: EVQLQQSGPEVMKPGASVKMSCKASGYTFTDYNMHWVKQNQGKSLEWIGEINPNIGGTGYNQKFKGKATLTVHKSSSTAYMELRSLTSEDSAVYYCARTYSYYSYEFAYWGQGTLVTVSA
VL: QIVLTQSPAIMSASPGEKVTMTCSASSSVSYMHWYQQKSGTSPKRWIYDTSKLPSGVPARFSGSGSGTSYSLTISSMEAEDAATYYCQQWSSTPPTFGAGTKLELK
modifications: Murine SC17.17 VH; Murine SC17.17 VL
notes: murine anti-SEZ6 antibody
As to B1, the “cross reactivity to rat SEZ6” value in assay [1] is recorded as “cross reactive”. Also, the “cross reactivity to cynomolgus SEZ6” value in assay [2] is reported as “cross reactive”. Further, in assay [3], the Discontinuous entry is listed as “Yes”.

B2: SC17.102: murine anti-SEZ6 antibody (antibody, V domains shown)
VH: EVQLQQSGPELMKPGASVKMSCKASGDTFTDYNIHWVKQNQGKSLEWIGEVNPNIGGIGYNQKFKGKATLTVDKSSSTAYMELRSLTSEDSAVYYCAMGRWYFDVWGAGTTVTVSS
VL: QIVLTQSPAIMSASPGEKVTMTCSASSSVSYMHWYQQKSGTSPKRWIYDTSKLASGVPPRFSGRGSGTSYSLTISSMEAEDAATYYCQHWSSNPPTFGAGTKLEMK
modifications: Murine SC17.102 VH; Murine SC17.102 VL
notes: murine anti-SEZ6 antibody
B2: the Discontinuous result in assay [3] is recorded as “Yes”.

B3: SC17.166: murine anti-SEZ6 antibody (antibody, V domains shown)
VH: EVQLQQSGPELMKPGASVKMSCKASGYIFTDYNMHWVKQNQGKSLEWIGEVNPNTGGIGYNQKFKGKATLTVDKSSSTAYMDLRSLTSEDSAVYYCARDGNYCFDYWGQGTTLTVSS
VL: QIVLTQSPAIMSASPGEKVTMTCSASSSISYMHWYQQKSGTSPKRWIYDTSKLASGVPARFSGSGSGTSYSLTISNMEAEDAATYYCQQWSSTPPTFGGGTKLEIK
modifications: Murine SC17.166 VH; Murine SC17.166 VL
notes: murine anti-SEZ6 antibody
For the molecule B3, in assay [3], the Discontinuous entry was “Yes”.

B4: SC17.191: murine anti-SEZ6 antibody (antibody, V domains shown)
VH: EVQLQQSGPELMKPGASVKMSCKASGYTFTDYNMHWVKQNQGKSLEWIGEINPNTGGTGYNQKFKDKATLTVDKSSSTAYMELRSLTSEDSAVYYCARIPSLRRYYFDYWGQGTTLTVSS
VL: QIVLTQSPAIMSASPGEKVTMTCSASSSVSYMHWYQQKSGTSPKRWIYDTSKLASGVPARFTGSGSGTSYSLTISSMEAEDAATYYCQQWSSSPPTFGAGTKLELK
modifications: Murine SC17.191 VH; Murine SC17.191 VL
notes: murine anti-SEZ6 antibody
Turning to B4, in assay [3], the Discontinuous result is given as “Yes”.

B5: SC17.121: murine anti-SEZ6 antibody (antibody, V domains shown)
VH: EVQLQQSGPELMKPGASVKMSCKASGYTFTDHNIHWVKQHQGKSLEWIGEINPNTGGTGYNQKFQGKATMTVDKSSSTAYMELRSLTSEDSAVYYCVRGLYFFDYWGQGTTLTVSS
VL: QIVLTQSPAIMSASPGEKVTMTCSASSSVSYMHWYQQKSGTSPKRWIYDTSKLASGVPARFSGSGSGTSYSLTISSMETEDAATYYCQQWSNTPPTFGSVTKLEIK
modifications: Murine SC17.121 VH; Murine SC17.121 VL
notes: murine anti-SEZ6 antibody
For the molecule B5, the Discontinuous entry in assay [3] is reported as “Yes”.

B6: SC17.45: murine anti-SEZ6 antibody (antibody, V domains shown)
VH: QVQLQQPGSVLVRPGDSVKLSCKASGYTFTSYWMHWVKQSPGQGLEWIGEIHPHSGSTNYNEKFKGKATLTVDTSSSTAYVDLSSLTSEDSAVYYCVGGHYDYWGQGTTLTVSS
VL: ENVLTQSPAIMSASPGEKVTMTCSASSSVNYMYWYQQKSSTSPKLWIYDTSKLTSGVPGRFSGSGSGNSYSLTISNMEAEDVATYYCFQGSGYPLTFGSGTKLEIK
modifications: Murine SC17.45 VH; Murine SC17.45 VL
notes: murine anti-SEZ6 antibody
For B6, in assay [2], the “cross reactivity to cynomolgus SEZ6” value is listed as “cross reactive”.

B7: SC17.156: murine anti-SEZ6 antibody (antibody, V domains shown)
VH: QVTLKESGPGILQPSQTLSLTCSFSGFSLSTSGMGVSWIRKTSGKGLEWLAHIFWDDDKWYNPSLKSRLTISKATSSNQVFLILTSVDTADTATYYCATFYGLYFAYWGQGTTLTVSS
VL: DVVMTQSPLSLPVSLGDQASISCRSSQSIVHSNGNTYLEWYLQKPGQSPKLLIYKVSNRFSGVPDRFSGSGSGTDFTLKISRVEAEDLGVYYCFQGSHVPPTFGGGTKLEIK
modifications: Murine SC17.156 VH; Murine SC17.156 VL
notes: murine anti-SEZ6 antibody
On to B7, for which, in assay [3], the Discontinuous entry was “Yes”.

B8: SC17.36: murine anti-SEZ6 antibody (antibody, V domains shown)
VH: EVQLQESGPSLVKPSQSQSLTCSVTGDSITSDYWNWIRKFPGKKVEYMGYINYSGSTYYNPSLKSRISITRDTSKNQYYLQLNSVTSEDTATYYCARTSYYNKFLPFAYWGQGTLVTVSA
VL: QIVLTQSPALMSASPGEKVTMTCSASSSVSYMYWYQQKPRSSPKPWIYLTSNLASGVPARFSGSGSGTSYSLTISSMEAEDAATYYCQQWSSNPPTFGGGTKLEIK
modifications: Murine SC17.36 VH; Murine SC17.36 VL
notes: murine anti-SEZ6 antibody
In the case of B8, the “cross reactivity to cynomolgus SEZ6” value in assay [2] is recorded as “cross reactive”. Besides, in assay [3], the Discontinuous result was “Yes”.

B9: SC17.4: murine anti-SEZ6 antibody (antibody, V domains shown)
VH: QIQLVQSGPELKKPGETVKISCKASGYTFTDYSMHWVKQAPGKGLKWLGWINTETGEPTYSEDFKGRFAFSLETSASTAYLQINNLKNEDTATYFCVKNKGWFAYWGQGTLVTVSA
VL: DIKMTQSPSSMYASLGERVTITCKASQDINSYLTWFQQKPGKSPKTLIYRANRLIDGVPSRFSGSGSGQDYSLTISSLDYEDMGIYYCLQYDDFPWTFGGGTKLEIK
modifications: Murine SC17.4 VH; Murine SC17.4 VL
notes: murine anti-SEZ6 antibody
Consider B9, for which the Discontinuous result in assay [3] is listed as “No”.

The record behind these values is US9993566B2, “SEZ6 modulators and methods of use” (AbbVie Stemcentrx LLC, priority 2013, dated 2018).
